In paper PMC4476739:

Tests used:
[1] = target: DS-Cav1 1-C, foldon removed (respiratory syncytial virus) (UniProt P03420); assay: BLI; fortéBio Octet Red384; RSV F variant captured on motavizumab IgG loaded on anti-human Fc probes; Fab in solution 0.007 to 0.5 μM; 30°C; PBS + 1% BSA; 1:1 fit
[2] = target: DS-Cav1, 505-… (design without foldon) (respiratory syncytial virus) (UniProt P03420); assay: ELISA; D25 ELISA on 293T transient expression culture supernatants, 96-well microtiter plate format
[3] = target: RSV F DS-Cav1 with a thrombin cleavage site between RSV F and the foldon, before cleavage (respiratory syncytial virus | bacteriophage T4) (UniProt P03420); assay: SEC; S200 size-exclusion chromatography of purified RSV F variants, before or after removal of the foldon with thrombin; PBS
[4] = target: RSV F DS-Cav1 with C-terminal T4 fibritin foldon (respiratory syncytial virus | bacteriophage T4) (UniProt P03420); assay: as above

D25 antigen binding fragment (Fab)
Kd [1]: 0.32 nM

D25 antibody as used in the ELISA
D25 ELISA binding titer (OD) [2]: > 2 OD

RSV F DS-Cav1 with a thrombin cleavage site between RSV F and the foldon, before cleavage (from UniProt P03420 26-109; P03420 137-511) (domain or fragment)
stoichiometry N [3]: 3

RSV F DS-Cav1 with C-terminal T4 fibritin foldon (from UniProt P03420 26-109; P03420 137-511) (domain or fragment)
stoichiometry N [4]: 3
